From the supplement of paper PMC10567573

B1: BTBD10 (parent)
chain: DRKLHSRPRKLYKHSSTSSRIAKG

Variants of: B1
Test: protein stability index of a GFP-peptide fusion (GPS, HEK-293T) (PSI 1-6); higher = more stable
Conditions: c terminus: a fixed tail appended
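Also: lentivirally expressed fusions sorted by FACS into six bins by GFP to DsRed ratio, PSI derived from sequencing read proportions per bin multiplied by bin number.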

Protein stability index: each site, then its substitutions
S18: V 4.07; W 2.71; H 3.6; A 4.42; I 3.54; P 3.93; L 4.3; K 3.4; Q 3.95; R 3.63; Y 2.88; D 4.13; N 4.36; G 3.99; T 3.65; E 4.38; F 3.04; M 3.63; C 3.27
L11: W 3.67; Y 3.7; N 3.46; R 4.42; S 4.57; M 4.67; Q 4.13; T 4.82; V 3.82; P 3.79; K 4.19
H14: Q 3.79; I 3.88; L 3.4; N 4.43; W 3.61; Y 2.79; T 4.19; M 3.67; C 4.41; S 3.66; R 4.05; P 3.54; E 4.13; F 4.44; A 4.27; K 3.64; D 3.58
S19: N 3.58; H 3.5; Y 2.62; M 3.07; W 3.22; K 4.18; I 3.7; A 3.55; T 4.4; D 3.93; L 3.45; E 4.42; R 4.53; F 3.23; V 3.65; Q 3.63; P 4.34; C 3.62; G 3.57
S15: A 4.23; Y 3.67; I 3.43; K 3.59; R 4.12; W 3.1; E 4.06; M 3.1; H 3.25; V 3.88; Q 3.85; T 4.17; C 3.89; L 3.71; N 3.66; G 4.49; P 4.05; F 3; D 4.22
G24: H 3.35; R 4; Q 3.92; N 4.3; L 3.28; V 3.74; A 3.61; S 3.65; Y 3.33; P 4.05; I 3.21; E 4.5; C 3.3; W 2.65; F 3.19; T 4; K 4.14; M 3.38; D 3.65
R20: Y 3.94; S 3.85; H 4.24; W 2.97; D 4.28; C 3.39; N 4.21; V 3.96; K 3.92; I 3.66; P 3.6; L 3.94; A 3.9; E 4.04; T 4.13; F 3.6; M 4.06; Q 4.2; G 3.62
I21: S 4.59; C 3.88; H 4.04; V 3.74; E 4.33; P 4.16; K 4.28; M 3.77; Y 4.48; N 4.03; A 3.5; G 4.71; D 4.6; F 3.65; L 3.96; W 3.33; Q 3.36; T 4.18; R 3.95
S16: C 3.43; I 3.65; F 2.17; Y 3.45; L 3.92; K 2.94; A 4.32; G 3.52; W 3.25; V 4.03; P 3.87; D 3.83; N 4.28; M 4; R 3.78; Q 4.18; E 3.99; T 4.35; H 3.55
Y12: P 4.15; G 4.65; F 4.01; C 3.84; Q 4.01; A 4.54; E 4.28; D 4.27; M 3.11; T 4.05; K 4.72; S 4.65; R 4.21; V 4.08; L 3.88; I 3.3; N 4.12; W 4.1; H 3.78
K13: T 4; H 3.65; A 4.04; P 3.86; I 2.68; L 2.84; G 4.42; W 3.55; D 4.23; N 3.61; S 3.52; E 4.47; Q 4.12; V 3.69; F 2.77; Y 3.6; C 3.68; R 3.74; M 2.84
T17: N 3.18; R 4.45; Q 3.98; S 3.86; H 3.63; D 4.54; P 3.88; V 3.81; W 2.2; G 2.9; Y 3.08; L 4.48; C 3.35; K 4.33; A 3.7; I 3.56; M 3.28; F 3.24; E 4.41
K23: A 3.72; F 3.56; Q 4.1; T 3.58; R 3.27; M 2.89; P 3.44; N 4.61; C 3.17; H 3.41; G 4.08; W 3.04; D 3.78; L 3; V 3.31; I 2.92; E 4.08; Y 2.98; S 3.41
A22: N 3.34; M 3.44; Y 3.7; I 3.58; S 4.15; R 4.5; K 3.68; D 4.01; G 3.91; E 3.67; L 3.03; H 3.58; P 3.99; F 2.99; C 3.11; Q 4.15; W 3.47; V 3.71; T 3.55
